# Assay results: PMC8301185, “Secondary Structure of the Novel Myosin Binding Domain WYR and Implications within Myosin Structure” (Biology, 2021)
# Ends that are not written are not given here.
# T1: Myosin heavy chain, muscle (LMM) 1346-1941 (Drosophila melanogaster, UniProt P05661)
# T1 chain: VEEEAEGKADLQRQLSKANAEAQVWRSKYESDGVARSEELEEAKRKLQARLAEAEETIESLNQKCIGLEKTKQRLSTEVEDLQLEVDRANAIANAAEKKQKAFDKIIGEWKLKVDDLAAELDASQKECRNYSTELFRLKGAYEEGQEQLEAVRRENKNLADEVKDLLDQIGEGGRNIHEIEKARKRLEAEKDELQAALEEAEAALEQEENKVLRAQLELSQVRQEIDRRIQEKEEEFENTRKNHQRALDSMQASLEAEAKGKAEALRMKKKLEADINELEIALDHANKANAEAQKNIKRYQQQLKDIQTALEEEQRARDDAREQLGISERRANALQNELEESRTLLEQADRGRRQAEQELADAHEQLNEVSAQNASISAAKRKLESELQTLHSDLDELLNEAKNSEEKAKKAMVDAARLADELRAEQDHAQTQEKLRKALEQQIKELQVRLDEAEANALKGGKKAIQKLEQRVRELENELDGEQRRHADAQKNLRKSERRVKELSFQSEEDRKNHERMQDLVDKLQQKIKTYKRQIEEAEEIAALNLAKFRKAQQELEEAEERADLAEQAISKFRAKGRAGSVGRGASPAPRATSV
# Key:
# [1] = target: T2, LMM (V1346 through I1941 of D. melanogaster myosin heavy-chain) (Drosophila melanogaster, UniProt P05661); assay: Co-sedimentation assay of LMM titrated by WYR; format: binding
# T2 construct: encompassing V1346 through I1941 of D. melanogaster myosin heavy-chain; made in house; host or cells: E. coli BL-21(DE3) pLysS
# Experimental: A 68.9 kDa 602 aa peptide encompassing V1346 through I1941 of D. melanogaster myosin heavy-chain (herein LMM) with an N-terminal 6× His-tag cloned into pET-23a vector was transformed into E. coli BL-21(DE3) pLysS cells. Cells were grown in Luria broth (LB) containing 100 µg/mL ampicillin and 50 µg/mL chloramphenicol. Upon reaching A600 of 0.8–1.0, culture was chilled on ice for 15 min, and expression was induced by adding IPTG to 0.75 mM and incubating for 16 h at 25 °C with gentle rocking. Induced cells were collected by centrifugation at 10,000 rcf for 10 min and stored as pellets at −40 °C. Pellets were resuspended in lysis buffer described by Korkmaz et al., and lysed by sonication. […] The relative purity of each fraction was assessed via SDS-PAGE stained with Krypton (Thermo Scientific, Rockford, IL, USA). […] Protein concentration was determined via absorbance at 280 nm using an extinction coefficient of 18450 cm^−1 M^−1. […]
# Synthetic, 6.6 kDa 52 aa WYR peptide encompassing H84-T136 of D. melanogaster flightin was sourced from Genscript (Piscataway, NJ, USA). Peptide was suspended in ddH2O, filtered through a 0.22 µm Millipore filter, and concentration determined by micro BCA assay and absorbance at 280 nm using an extinction coefficient of 21,430 cm^−1 M^−1. […]
# [2] = Circular dichroism of LMM alone, secondary structure estimation; format: physicochemical; conditions: for CD maximum wavelength: MRE profile, Figure S9; for helicity, range over methods: without CONTIN, CDSSTR, BeStSel; for α helical content, range over methods: all methods
# Experimental: A 68.9 kDa 602 aa peptide encompassing V1346 through I1941 of D. melanogaster myosin heavy-chain (herein LMM) with an N-terminal 6× His-tag cloned into pET-23a vector was transformed into E. coli BL-21(DE3) pLysS cells. Cells were grown in Luria broth (LB) containing 100 µg/mL ampicillin and 50 µg/mL chloramphenicol. Upon reaching A600 of 0.8–1.0, culture was chilled on ice for 15 min, and expression was induced by adding IPTG to 0.75 mM and incubating for 16 h at 25 °C with gentle rocking. Induced cells were collected by centrifugation at 10,000 rcf for 10 min and stored as pellets at −40 °C. Pellets were resuspended in lysis buffer described by Korkmaz et al., and lysed by sonication. To purify the MHC peptide, the lysate was rocked at 4 °C with Ni-NTA-agarose resin for one hour in a 20 mL column before being rinsed with 8 column volumes of 20 mM imidazole wash-buffer. The resin was then rinsed in two 15 mL portions of each 40- and 80 mM imidazole wash buffer, with 10 min of rocking in each 15 mL portion. The peptide was eluted in six 1 mL fractions and one 12 mL fraction for a total volume of 18 mL 200 mM imidazole elution buffer. All wash and elution buffers are variants of ‘Buffer A’ described by Korkmaz et al. with the following modifications: imidazole concentration was adjusted to 20 mM, 40 mM or 80 mM for wash buffer and to 200 mM for elution buffer. The relative purity of each fraction was assessed via SDS-PAGE stained with Krypton (Thermo Scientific, Rockford, IL, USA). Selected fractions were further purified and concentrated with an Amicon Ultra-15 50k centrifugal filter, and buffer exchanged into 400 mM NaF, 20 mM sodium phosphate pH 7.0, 1 mM TCEP for storage. Protein concentration was determined via absorbance at 280 nm using an extinction coefficient of 18450 cm^−1 M^−1. Densitometry using ImageJ was carried out on Krypton stained gels to ascertain purity of the sample [23] and the peptide identity verified by mass spectrometry.
# WYR and LMM samples ranging from 0.5 to 10 µM were prepared in 700 µL of 215 mM NaF, 20 mM Sodium Phosphate, pH 7, 1 mM TCEP. LMM preparations were centrifuged at 10,000 rcf for 10 min and filtered through a 0.22 µm Millipore filter. Blank samples used an equivalent volume of filtrate from the final flow through from LMM concentrators as used in the experimental samples to account for any possible trace contaminant. These blanks were checked against equivalent freshly prepared buffer. A rectangular STARNA quartz cuvette with a pathlength of 0.2 cm was used throughout. Between experiment days the cuvette received a full wash with the provided STARNA detergent in accordance to STARNA protocol. Between samples, 1× 60% EtOH and 3× dH2O rinses were carried out and residual fluid was evaporated with pressurized nitrogen.
# Samples were measured at 25 °C using a Jasco J-1700 spectropolarimeter at a scanning-speed of 20 nm/min with a digital integration time (DIT) of 8 s and bandwidth of 0.5–1 nm over six accumulations, minimally from 260–190 nm on continuous scan mode. A minimum n = 6 was used for measurements of the experimental combination of LMM and WYR and an n = 10 for WYR alone in 215 mM NaF, 20 mM Sodium Phosphate, pH 7, 1 mM TCEP. Wavelengths at maxima and minima, as well as θ222/208 and θ192/208 ellipticity ratios were recorded for all spectra. […] While other analysis programs exist, BeStSel is best suited for non-helical proteins of more unusual structure through both its diverse eight element modelling and inclusion of a basis dataset that incorporates proteins with rare secondary structures. BeStSel was most appropriate given the non-helical profile of WYR along with its high aromatic content and presence of proline.
# Independent spectra for each peptide were evaluated after subtracting baseline spectra. […]
# [3] = target: T1, Myosin heavy chain, muscle (LMM) …; assay: co-sedimentation
# T2 sequence (P05661 1-1936 isoform P05661-24): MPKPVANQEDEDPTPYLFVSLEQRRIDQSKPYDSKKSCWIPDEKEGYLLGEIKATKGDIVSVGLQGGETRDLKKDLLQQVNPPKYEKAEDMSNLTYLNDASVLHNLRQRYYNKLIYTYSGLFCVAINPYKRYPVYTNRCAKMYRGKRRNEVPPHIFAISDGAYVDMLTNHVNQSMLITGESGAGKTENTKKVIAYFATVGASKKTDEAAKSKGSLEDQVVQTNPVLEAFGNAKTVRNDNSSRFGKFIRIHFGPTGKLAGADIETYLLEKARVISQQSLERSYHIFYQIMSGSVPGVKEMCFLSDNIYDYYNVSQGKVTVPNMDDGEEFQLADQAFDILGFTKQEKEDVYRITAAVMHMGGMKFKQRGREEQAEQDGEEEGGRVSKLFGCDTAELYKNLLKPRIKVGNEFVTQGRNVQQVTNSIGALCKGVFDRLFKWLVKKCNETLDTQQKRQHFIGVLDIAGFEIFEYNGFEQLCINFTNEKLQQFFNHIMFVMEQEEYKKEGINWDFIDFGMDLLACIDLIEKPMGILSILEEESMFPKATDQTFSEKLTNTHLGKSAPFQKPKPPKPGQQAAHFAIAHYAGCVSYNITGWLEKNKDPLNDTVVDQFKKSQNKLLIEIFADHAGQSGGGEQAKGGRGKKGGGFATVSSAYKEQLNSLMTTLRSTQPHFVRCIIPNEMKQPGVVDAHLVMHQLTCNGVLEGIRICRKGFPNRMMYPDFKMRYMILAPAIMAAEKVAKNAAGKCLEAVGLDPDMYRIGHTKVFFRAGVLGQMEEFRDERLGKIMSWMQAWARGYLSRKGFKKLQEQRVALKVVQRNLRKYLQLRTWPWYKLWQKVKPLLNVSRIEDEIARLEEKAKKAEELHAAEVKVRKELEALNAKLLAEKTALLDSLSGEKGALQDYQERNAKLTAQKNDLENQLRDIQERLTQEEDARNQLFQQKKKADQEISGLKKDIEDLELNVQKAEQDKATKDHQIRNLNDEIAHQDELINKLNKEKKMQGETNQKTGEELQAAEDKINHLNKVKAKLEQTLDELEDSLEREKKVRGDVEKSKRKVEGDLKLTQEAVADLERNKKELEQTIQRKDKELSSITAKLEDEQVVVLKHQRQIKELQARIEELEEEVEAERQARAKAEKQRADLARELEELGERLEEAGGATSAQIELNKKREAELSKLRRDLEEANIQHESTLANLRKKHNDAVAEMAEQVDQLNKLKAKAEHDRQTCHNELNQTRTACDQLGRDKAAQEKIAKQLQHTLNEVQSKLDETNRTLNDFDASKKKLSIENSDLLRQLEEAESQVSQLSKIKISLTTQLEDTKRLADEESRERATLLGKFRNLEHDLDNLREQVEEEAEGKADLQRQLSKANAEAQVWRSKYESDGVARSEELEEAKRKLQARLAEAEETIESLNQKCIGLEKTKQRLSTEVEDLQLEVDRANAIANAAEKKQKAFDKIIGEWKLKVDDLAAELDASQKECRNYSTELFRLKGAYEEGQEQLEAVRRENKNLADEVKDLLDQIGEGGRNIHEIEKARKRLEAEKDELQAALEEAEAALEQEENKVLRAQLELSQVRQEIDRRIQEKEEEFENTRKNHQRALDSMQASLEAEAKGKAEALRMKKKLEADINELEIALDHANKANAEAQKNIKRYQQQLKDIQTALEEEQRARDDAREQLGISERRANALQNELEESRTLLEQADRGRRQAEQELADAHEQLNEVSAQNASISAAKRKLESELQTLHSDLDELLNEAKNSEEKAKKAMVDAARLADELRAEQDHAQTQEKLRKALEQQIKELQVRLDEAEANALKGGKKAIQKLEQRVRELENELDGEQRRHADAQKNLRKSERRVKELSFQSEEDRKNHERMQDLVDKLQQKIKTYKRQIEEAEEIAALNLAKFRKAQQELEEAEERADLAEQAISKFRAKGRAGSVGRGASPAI
molecule,measurement,setting,value
HWVRPKFLQYKYMYNYRTNYYDDVIDYIDKKQTGVAREIPRPQTWAERVLRT [WYR],Kd,"[1]; Kd 95% CI, 95% confidence interval of Kd, co-sedimentation",1550 to 2760 nM
same,LMM sedimenting in the presence of WYR,[1]; upon centrifugation at the WYR/LMM ratio used in CD experiments,~ 30%
"LMM: 68.9 kDa 602 aa peptide encompassing V1346 through I1941 of D. melanogaster myosin heavy-chain with an N-terminal 6× His-tag (protein, UniProt P05661 1346-1941, looked up, fragment, N-terminal 6xHis tag, 68.9 kDa 602 aa peptide encompassing V1346 through I1941 of D. melanogaster myosin heavy-chain with an N-terminal 6× His-tag) VEEEAEGKADLQRQLSKANAEAQVWRSKYESDGVARSEELEEAKRKLQARLAEAEETIESLNQKCIGLEKTKQRLSTEVEDLQLEVDRANAIANAAEKKQKAFDKIIGEWKLKVDDLAAELDASQKECRNYSTELFRLKGAYEEGQEQLEAVRRENKNLADEVKDLLDQIGEGGRNIHEIEKARKRLEAEKDELQAALEEAEAALEQEENKVLRAQLELSQVRQEIDRRIQEKEEEFENTRKNHQRALDSMQASLEAEAKGKAEALRMKKKLEADINELEIALDHANKANAEAQKNIKRYQQQLKDIQTALEEEQRARDDAREQLGISERRANALQNELEESRTLLEQADRGRRQAEQELADAHEQLNEVSAQNASISAAKRKLESELQTLHSDLDELLNEAKNSEEKAKKAMVDAARLADELRAEQDHAQTQEKLRKALEQQIKELQVRLDEAEANALKGGKKAIQKLEQRVRELENELDGEQRRHADAQKNLRKSERRVKELSFQSEEDRKNHERMQDLVDKLQQKIKTYKRQIEEAEEIAALNLAKFRKAQQELEEAEERADLAEQAISKFRAKGRAGSVGRGASPAPRATSV",fractional alpha helical composition,"[2]; 208 nm magnitude, [LMM] 2 µM",28.5%
same,fractional alpha helical composition,"[2]; 208 nm magnitude, [LMM] 10 µM",28.7%
same,fractional alpha helical composition,"[2]; 222 nm magnitude, [LMM] 2 µM",18.1%
same,fractional alpha helical composition,"[2]; 222 nm magnitude, [LMM] 10 µM",19.1%
same,fractional alpha helical composition,"[2]; 230-240 nm slope, [LMM] 2 µM",14.2%
same,fractional alpha helical composition,"[2]; 230-240 nm slope, [LMM] 10 µM",15.3%
same,fractional alpha helical composition,"[2]; BeStSel (190-260), [LMM] 2 µM",11.3%
same,fractional alpha helical composition,"[2]; BeStSel (190-260), [LMM] 10 µM",15.6%
same,fractional alpha helical composition,"[2]; CDSSTR (SMP180), [LMM] 2 µM",8%
same,fractional alpha helical composition,"[2]; CDSSTR (SMP180), [LMM] 10 µM",17.9%
same,fractional alpha helical composition,"[2]; CONTIN (SMP180), [LMM] 10 µM",8.2%
same,fractional alpha helical composition,"[2]; K2D, [LMM] 2 µM",19%
same,fractional alpha helical composition,"[2]; K2D, [LMM] 10 µM",22%
same,CD maximum wavelength,[2]; LMM 2 µM,193-194 nm
same,CD maximum wavelength,[2]; LMM 10 µM (higher concentration),197-198 nm
same,222/208 ratio,[2]; [LMM] 2 µM (low),1.08
same,222/208 ratio,[2]; [LMM] 10 µM (high),1.17
same,"helicity, range over methods",[2]; high concentration,15.3 to 28.7%
same,"α helical content, range over methods",[2]; higher LMM concentration (10 µM),8.2–28.7%
same,"helicity, range over methods",[2]; low concentration,14.2 to 28.5%
same,"α helical content, range over methods",[2]; lower LMM concentration (2 µM),8–28.5%
Flightin (WYR domain) 84-136 (protein) HWVRPKFLQYKYMYNYRTNYYDDVIDYIDKKQTGVAREIPRPQTWAERVLRTR,Kd,[3],2060 nM
